Literature values, collected in article PMC10648573.
Read-outs that look alike come from different tables or passages of the source.

Experiments:
[1] = biological target: NGALR 1-105 (Homo sapiens) (UniProt Q8WUG5)
[2] = biological target: NGALR 1-105 (Homo sapiens) (UniProt Q8WUG5); remark: listed apart in the source
[3] = biological target: 24p3R (Homo sapiens) (UniProt Q8WUG5)
[4] = biological target: megalin (Homo sapiens) (UniProt P98164)
UniProt P98164, sequence (P98164 26-4423): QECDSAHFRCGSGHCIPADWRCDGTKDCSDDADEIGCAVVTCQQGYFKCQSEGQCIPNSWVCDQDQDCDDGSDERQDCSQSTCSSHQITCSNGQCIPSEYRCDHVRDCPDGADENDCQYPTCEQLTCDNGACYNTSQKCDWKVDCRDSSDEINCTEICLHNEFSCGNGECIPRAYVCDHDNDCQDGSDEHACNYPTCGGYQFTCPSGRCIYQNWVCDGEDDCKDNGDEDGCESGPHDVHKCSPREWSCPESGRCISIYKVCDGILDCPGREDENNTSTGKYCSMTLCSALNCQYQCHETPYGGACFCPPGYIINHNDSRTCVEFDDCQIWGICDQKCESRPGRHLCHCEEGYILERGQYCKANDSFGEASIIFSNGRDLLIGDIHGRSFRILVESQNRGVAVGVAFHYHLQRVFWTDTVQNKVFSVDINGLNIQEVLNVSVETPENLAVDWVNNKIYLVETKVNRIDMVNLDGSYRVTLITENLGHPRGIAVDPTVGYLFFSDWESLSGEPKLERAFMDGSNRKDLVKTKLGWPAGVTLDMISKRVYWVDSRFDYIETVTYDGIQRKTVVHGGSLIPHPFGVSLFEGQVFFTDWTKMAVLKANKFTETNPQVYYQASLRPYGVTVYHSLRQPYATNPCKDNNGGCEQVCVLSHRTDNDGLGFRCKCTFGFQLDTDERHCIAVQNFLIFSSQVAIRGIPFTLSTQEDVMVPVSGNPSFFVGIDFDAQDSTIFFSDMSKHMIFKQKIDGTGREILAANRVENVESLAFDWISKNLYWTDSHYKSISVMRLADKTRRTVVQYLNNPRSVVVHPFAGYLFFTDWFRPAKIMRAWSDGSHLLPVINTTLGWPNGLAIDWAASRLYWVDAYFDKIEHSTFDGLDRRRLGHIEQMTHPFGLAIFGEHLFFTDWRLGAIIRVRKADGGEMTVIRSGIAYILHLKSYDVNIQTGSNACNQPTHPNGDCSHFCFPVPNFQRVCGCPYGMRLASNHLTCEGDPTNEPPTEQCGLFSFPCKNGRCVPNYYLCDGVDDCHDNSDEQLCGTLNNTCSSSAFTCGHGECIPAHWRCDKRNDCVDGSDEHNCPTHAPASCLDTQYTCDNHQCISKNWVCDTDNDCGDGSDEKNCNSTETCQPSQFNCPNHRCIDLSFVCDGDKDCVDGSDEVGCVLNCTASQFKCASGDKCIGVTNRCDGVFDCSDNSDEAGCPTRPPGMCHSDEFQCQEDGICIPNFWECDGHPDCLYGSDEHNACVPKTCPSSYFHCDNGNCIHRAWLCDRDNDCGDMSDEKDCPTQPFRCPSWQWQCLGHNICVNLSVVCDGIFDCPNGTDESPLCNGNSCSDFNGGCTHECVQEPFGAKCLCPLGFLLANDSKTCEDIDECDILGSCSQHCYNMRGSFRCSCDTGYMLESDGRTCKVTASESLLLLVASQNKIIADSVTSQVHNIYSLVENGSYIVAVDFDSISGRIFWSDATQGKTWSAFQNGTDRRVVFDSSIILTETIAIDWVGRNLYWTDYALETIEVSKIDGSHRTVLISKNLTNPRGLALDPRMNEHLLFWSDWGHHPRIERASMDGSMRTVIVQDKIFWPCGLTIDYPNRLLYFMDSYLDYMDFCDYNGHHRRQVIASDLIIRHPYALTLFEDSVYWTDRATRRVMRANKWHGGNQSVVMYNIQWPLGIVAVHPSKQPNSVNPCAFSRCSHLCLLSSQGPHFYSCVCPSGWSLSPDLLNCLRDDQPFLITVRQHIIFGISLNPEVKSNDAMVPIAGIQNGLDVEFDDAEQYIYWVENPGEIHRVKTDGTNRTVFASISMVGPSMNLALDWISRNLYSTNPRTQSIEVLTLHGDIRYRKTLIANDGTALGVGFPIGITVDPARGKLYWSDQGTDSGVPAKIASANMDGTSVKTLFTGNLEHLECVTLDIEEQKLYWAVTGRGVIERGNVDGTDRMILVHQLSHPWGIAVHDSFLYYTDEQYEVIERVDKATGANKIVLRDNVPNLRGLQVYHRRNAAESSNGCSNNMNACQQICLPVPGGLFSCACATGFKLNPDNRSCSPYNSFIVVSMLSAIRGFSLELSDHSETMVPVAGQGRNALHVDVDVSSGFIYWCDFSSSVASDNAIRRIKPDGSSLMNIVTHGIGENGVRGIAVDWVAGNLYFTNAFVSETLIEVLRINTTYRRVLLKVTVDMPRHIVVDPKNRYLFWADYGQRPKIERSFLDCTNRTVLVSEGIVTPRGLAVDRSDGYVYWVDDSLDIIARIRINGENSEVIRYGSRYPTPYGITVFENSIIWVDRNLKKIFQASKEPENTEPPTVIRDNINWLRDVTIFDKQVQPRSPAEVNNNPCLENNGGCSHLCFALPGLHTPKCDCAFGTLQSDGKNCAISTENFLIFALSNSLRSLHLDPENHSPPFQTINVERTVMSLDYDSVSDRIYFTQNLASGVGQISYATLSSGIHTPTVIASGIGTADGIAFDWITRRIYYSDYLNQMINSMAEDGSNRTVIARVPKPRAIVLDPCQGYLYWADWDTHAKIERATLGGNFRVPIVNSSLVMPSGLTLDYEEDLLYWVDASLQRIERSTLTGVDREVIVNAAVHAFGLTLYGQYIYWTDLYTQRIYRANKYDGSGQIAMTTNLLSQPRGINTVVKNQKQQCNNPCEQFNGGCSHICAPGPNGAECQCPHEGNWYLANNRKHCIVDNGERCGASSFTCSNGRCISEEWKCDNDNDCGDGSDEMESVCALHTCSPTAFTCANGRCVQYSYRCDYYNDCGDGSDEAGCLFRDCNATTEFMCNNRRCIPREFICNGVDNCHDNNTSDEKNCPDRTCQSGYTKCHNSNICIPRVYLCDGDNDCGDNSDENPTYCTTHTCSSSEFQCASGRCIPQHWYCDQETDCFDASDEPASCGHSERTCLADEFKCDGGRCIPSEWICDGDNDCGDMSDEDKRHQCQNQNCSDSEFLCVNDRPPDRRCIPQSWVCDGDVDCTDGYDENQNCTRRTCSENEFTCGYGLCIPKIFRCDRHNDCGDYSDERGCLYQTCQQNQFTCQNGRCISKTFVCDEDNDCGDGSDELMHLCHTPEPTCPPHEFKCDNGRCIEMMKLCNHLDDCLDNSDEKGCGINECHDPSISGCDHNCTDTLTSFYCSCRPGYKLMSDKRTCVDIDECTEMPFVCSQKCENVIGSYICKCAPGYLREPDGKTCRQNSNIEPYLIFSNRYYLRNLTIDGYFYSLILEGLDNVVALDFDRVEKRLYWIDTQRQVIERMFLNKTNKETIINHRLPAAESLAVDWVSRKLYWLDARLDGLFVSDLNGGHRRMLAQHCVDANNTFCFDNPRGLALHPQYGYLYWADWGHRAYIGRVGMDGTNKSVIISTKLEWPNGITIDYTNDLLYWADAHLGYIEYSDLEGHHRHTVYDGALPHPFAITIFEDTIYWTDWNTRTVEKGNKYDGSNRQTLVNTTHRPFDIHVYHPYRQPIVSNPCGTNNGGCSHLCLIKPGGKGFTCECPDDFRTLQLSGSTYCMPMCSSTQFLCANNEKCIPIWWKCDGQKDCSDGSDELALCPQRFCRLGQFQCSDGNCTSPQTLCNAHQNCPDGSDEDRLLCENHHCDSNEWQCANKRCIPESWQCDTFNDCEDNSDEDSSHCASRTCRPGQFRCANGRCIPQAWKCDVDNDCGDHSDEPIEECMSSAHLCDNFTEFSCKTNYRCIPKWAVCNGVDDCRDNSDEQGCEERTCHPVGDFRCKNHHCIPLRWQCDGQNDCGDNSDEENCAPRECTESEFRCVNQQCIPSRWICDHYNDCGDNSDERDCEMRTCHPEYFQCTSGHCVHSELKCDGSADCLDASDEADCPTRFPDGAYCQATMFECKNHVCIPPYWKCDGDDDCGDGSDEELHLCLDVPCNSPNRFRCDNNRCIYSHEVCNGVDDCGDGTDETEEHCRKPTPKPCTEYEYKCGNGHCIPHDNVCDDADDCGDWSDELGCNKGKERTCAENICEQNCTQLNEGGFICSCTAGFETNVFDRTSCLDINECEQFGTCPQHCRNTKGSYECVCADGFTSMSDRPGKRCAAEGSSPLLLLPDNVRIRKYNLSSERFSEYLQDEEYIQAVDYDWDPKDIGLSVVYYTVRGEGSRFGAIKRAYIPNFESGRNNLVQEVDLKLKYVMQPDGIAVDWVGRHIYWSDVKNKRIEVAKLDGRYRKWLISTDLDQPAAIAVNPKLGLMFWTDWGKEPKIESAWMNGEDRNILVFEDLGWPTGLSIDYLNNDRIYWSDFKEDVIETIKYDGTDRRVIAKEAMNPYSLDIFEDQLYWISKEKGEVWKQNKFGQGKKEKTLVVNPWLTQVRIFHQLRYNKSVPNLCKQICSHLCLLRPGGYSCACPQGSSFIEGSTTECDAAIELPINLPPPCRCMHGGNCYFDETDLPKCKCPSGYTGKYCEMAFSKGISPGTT

Substance	Kd [1] [µM]	Kd [2] [µM]	Kd [3] [nM]	Kd [4] [µM]
Lipocalin-2 (apo) (from UniProt P80188)	8.5	–	–	–
Lipocalin-2 (from UniProt P80188)	–	20	0.092	0.06
